The results in this text go back to patent US20250051465A1 (published 2025).

Experiment [1] concerns the target T1, human LEPR CRH1 (D1,D2)-MMH (human, UniProt P48357 22-339, limits assumed).
T1 construct: domain: CRH1 (D1,D2); Transiently expressed, captured from supernatant on anti-myc beads
Kind of experiment: Luminex, myc-captured LEPR domain. The method, then:
(§1) Aliquots of microspheres with immobilized anti-myc monoclonal antibodies, prepared as described above, were added individually to 1 mL of the each of these protein supernatants. The microspheres were gently mixed, incubated for two hours at 25° C., washed twice with 1 mL of DBPS, centrifuged to remove the supernatant and finally resuspended in 1 mL of DPBS buffer. Forty-eight μL of anti-myc IgG coupled microspheres from individual reactions with full length human LEPR and with each of the human LEPR domain proteins were withdrawn and mixed together in 3.6 mL of PBS+20 mg/mL BSA+0.05% sodium azide (blocking buffer).
(§2) From this mixed pool, 75 μL of microspheres were plated per well on a 96 well filter plate (Millipore, Cat. No: MSBVN1250) and mixed with 25 μL of individual anti-human LEPR monoclonal antibodies (0.5 or 5 µg/mL), incubated for two hours at 25° C. and then washed twice with 200 μL of DPBS with 0.05% Tween 20 (washing buffer). […] After 30 minutes, the samples were washed twice with 200 μL of washing buffer and resuspended in 150 μL of wash buffer. The Median Fluorescence intensity (MFI) of the microspheres was measured in a Luminex Analyzer.

In experiment [2] the target is T2, human LEPR CRH1 (D1,D2,D3)-MMH (human, UniProt P48357 22-427, limits assumed).
T2 construct: domain: CRH1-Ig (D1,D2,D3); Transiently expressed, captured from supernatant on anti-myc beads; also called CRH1-Ig (D1, D2, D3)
Kind of experiment: Luminex, myc-captured LEPR domain. The procedure:
as §1, §2

The target of experiment [3] is T3, human LEPR FNIII-MMH (human, UniProt P48357 636-839, limits assumed).
T3 construct: domain: FNIII; Transiently expressed, captured from supernatant on anti-myc beads
T3 sequence (P48357 other isoform, or with tags, fused parts or gaps limits assumed): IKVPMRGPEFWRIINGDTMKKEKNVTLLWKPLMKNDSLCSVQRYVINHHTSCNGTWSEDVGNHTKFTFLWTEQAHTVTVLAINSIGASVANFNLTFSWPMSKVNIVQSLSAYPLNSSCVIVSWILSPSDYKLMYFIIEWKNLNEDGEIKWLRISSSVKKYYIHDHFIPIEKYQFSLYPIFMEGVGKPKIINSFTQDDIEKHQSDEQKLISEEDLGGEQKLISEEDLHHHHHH
Kind of experiment: Luminex, myc-captured LEPR domain. The method, then:
as §1, §2

The target in experiment [4] is T4, human LEPR CRH1-Ig (D2,D3)-MMH (human, UniProt P48357 230-427, limits assumed).
T4 construct: domain: CRH1-Ig (D2,D3); Transiently expressed, captured from supernatant on anti-myc beads
T4 sequence (P48357 other isoform, or with tags, fused parts or gaps limits assumed): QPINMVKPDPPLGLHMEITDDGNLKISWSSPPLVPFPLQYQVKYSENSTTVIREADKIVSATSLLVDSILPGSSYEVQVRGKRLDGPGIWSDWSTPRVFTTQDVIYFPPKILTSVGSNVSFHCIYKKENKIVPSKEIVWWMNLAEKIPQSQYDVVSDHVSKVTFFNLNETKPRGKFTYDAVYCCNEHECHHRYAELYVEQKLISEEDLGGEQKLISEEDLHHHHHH
In words: Luminex, myc-captured LEPR domain. The method, then: as §1, §2

For experiment [5], the target named is T5, human LEPR CRH1 (D1)-MMH (human, UniProt P48357 22-229, limits assumed).
T5 construct: domain: CRH1 (D1); Transiently expressed, captured from supernatant on anti-myc beads
In words: Luminex, myc-captured LEPR domain. The procedure:
as §1, §2

Experiment [6] has as its target T6, human LEPR Ig (D3)-MMH (human, UniProt P48357 340-427, limits assumed).
T6 construct: domain: Ig (D3); Transiently expressed, captured from supernatant on anti-myc beads
In words: Luminex, myc-captured LEPR domain. The procedure: as §1, §2

The target in experiment [7] is T7, human LEPR CRH2-MMH (human, UniProt P48357 428-634, limits assumed).
T7 construct: domain: CRH2; Transiently expressed, captured from supernatant on anti-myc beads
T7 sequence (P48357 other isoform, or with tags, fused parts or gaps limits assumed): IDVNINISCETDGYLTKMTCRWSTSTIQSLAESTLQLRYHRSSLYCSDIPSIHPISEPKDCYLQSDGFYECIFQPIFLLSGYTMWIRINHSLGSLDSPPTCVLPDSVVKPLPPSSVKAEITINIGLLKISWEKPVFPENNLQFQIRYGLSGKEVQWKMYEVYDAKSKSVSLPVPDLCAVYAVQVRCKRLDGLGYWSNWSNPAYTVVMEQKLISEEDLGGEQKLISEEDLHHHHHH
In words: Luminex, myc-captured LEPR domain. The method, then:
as §1, §2

For experiment [8], the target named is T8, human LEPR Ig-CRH2-FNIII-MMH (human, UniProt P48357 330-839, limits assumed).
T8 construct: domain: Ig-CRH2-FNIII; Transiently expressed, captured from supernatant on anti-myc beads
T8 sequence (P48357 other isoform, or with tags, fused parts or gaps limits assumed): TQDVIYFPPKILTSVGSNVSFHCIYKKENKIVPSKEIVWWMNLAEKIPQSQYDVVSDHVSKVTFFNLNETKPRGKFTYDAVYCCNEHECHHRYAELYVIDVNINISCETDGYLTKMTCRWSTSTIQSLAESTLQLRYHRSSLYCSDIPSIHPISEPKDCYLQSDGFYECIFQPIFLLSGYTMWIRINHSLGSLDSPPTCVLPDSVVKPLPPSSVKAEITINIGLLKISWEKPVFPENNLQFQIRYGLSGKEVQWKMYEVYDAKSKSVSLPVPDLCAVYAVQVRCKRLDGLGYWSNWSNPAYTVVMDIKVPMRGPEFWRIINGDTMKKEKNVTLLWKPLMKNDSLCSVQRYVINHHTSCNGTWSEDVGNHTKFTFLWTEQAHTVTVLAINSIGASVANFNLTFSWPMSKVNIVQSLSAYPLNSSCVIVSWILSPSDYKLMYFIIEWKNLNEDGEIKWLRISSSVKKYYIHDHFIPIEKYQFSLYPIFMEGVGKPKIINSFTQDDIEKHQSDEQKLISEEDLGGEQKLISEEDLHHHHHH
In words: Luminex, myc-captured LEPR domain. The procedure:
as §1, §2

In experiment [9] the target is T9, preformed complex of hLEPR-MMH and human Leptin (human, UniProt P41159 22-167).
T9 construct: also called hLEPR-MMH: human Leptin complex; Leptn;LEPR
T9 sequence (P41159 22-167 limits assumed, one chain of several): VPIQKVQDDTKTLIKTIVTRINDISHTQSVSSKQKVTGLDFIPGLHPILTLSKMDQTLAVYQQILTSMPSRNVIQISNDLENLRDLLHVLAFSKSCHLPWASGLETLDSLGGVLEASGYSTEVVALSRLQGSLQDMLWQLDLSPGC
In words: SPR, mAb over preformed hLEPR-MMH:Leptin complex, 25C. The method, then: The entire study was performed in 10 mM HEPES pH 7.4, 150 mM NaCl, 3 mM EDTA, and 0.05% v/v Surfactant Tween-20 (HBS-ET running buffer) at 25° C.

In experiment [10] the target is extracellular domain of Macaca fascicularis LEPR fused with the transmembrane and cytosolic domains of human … (Macaca fascicularis; human, UniProt P48357 840-1165). In words: cell-based or functional assay.
In experiment [11] the target is T10, full length human LEPR on cells (human, UniProt P48357 22-1165).
T10 construct: also called HEK293/Stat3-luc/hLEPR-FL; hLEPR-FL
T10 sequence: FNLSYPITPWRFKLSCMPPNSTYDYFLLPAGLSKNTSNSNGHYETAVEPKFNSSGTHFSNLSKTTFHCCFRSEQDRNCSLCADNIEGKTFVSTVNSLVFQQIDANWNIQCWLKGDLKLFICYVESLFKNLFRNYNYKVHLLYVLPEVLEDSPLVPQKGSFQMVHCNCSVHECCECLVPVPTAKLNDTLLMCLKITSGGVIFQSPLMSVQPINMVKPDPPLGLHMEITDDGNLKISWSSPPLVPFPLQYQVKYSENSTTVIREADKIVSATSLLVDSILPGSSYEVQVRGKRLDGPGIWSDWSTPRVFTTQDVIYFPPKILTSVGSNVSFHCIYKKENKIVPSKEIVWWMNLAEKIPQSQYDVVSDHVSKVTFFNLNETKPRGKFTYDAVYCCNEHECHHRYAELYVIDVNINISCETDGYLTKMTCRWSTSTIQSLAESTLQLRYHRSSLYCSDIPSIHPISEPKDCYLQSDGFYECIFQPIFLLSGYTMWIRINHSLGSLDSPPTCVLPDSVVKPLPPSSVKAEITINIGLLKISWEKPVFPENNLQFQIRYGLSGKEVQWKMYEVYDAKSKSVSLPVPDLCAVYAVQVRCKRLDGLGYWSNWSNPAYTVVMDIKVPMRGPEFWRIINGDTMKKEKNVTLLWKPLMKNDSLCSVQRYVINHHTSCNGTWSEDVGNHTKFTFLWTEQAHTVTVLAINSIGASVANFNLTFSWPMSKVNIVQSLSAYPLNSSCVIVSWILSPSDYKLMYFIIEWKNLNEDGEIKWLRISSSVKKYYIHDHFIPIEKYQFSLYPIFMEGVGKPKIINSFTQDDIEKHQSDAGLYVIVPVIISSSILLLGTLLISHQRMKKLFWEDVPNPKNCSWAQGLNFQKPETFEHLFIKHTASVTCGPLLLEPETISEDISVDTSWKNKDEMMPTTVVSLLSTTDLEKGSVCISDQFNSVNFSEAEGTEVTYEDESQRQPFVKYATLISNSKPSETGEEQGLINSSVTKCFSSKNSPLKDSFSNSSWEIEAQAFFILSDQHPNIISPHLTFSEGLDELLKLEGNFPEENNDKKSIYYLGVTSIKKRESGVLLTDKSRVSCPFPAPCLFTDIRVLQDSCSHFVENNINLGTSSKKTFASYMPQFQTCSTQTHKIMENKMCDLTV
In words: FACS, HEK293/Stat3-luc/hLEPR-FL, 70 nM Ab.

T6 sequence (P48357 other isoform, or with tags, fused parts or gaps limits assumed): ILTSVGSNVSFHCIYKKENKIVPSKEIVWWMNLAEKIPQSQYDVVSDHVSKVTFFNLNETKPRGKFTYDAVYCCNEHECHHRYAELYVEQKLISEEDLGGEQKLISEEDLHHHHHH

B1: H4H17319P2 (antibody, human IgG4, V domains shown)
VH: QVQLVESGGSVVQPGRSLRLSCAASGFTFSTYAMYWVRQTPGKGLEWVAVLYSDGSNKYYIDSVKGRFTISRDTSTNTLYLQMSSLRADDSALYYCARLNWDYWYFDLWGRGTLVTVSS
VL: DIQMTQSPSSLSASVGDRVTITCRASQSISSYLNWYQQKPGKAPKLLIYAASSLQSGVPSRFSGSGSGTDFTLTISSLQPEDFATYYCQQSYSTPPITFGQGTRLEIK
notes: Fully human antibody with human IgG4 Fc (H4H prefix)
Consider B1, for which the MFI in experiment [1] was determined as 1250 MFI; in experiment [2] it was 938 MFI; in experiment [3] it was 20 MFI; in [4] it was 14 MFI; in [5] it was 8 MFI; in experiment [6], 8 MFI. For the same molecule, the values for the MFI in [7] and in [8] were 91 MFI and 8 MFI, respectively. In experiment [9], the “200 nM mAb Bound (RU)” value was 92 RU. In addition, the “% Activation” value in experiment [10] was 76%. The “EC50, STAT3-Luc reporter, IMR-32/STAT3-Luc/MfLEPR cells” value in [10] amounted to 365 pM. Besides, the “Binding Ratio” value in experiment [11] came out at 47 fold over unstained.
